Laboratory results from patent publication US20190062420A1 (Janssen / Centocor, published 2019).

T1: human FcγRIIB (NM_004001) expressed on cells (human, UniProt P31994 43-310)
T1 sequence: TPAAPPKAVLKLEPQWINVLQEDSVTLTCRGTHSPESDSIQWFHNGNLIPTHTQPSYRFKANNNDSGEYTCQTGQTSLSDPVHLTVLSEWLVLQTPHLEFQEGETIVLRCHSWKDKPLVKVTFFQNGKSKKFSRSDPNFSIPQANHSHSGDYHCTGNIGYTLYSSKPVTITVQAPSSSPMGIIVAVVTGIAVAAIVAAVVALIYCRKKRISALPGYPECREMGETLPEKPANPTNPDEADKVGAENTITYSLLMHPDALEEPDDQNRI

T2: human FcγRIIA (NM_021642) expressed on cells (human, UniProt P12318 36-317)
T2 sequence: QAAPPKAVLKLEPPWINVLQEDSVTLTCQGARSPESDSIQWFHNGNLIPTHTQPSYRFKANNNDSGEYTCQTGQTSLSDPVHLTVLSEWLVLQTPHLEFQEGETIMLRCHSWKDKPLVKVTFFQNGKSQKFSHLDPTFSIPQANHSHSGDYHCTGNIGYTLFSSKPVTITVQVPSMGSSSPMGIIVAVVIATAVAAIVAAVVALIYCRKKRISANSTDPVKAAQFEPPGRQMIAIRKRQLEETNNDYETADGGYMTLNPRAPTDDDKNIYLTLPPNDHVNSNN

T3: human OX40 expressed on HEK-Blue: OX40 cells (human, UniProt P43489 29-277)
T3 construct: also called CD134
T3 sequence: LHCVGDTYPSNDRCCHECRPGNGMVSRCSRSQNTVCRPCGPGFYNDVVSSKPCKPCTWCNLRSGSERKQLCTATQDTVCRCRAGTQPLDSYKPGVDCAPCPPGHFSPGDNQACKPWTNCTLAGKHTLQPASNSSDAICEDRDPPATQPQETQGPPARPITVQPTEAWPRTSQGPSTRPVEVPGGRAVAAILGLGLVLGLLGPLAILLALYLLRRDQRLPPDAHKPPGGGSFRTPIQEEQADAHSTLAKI

T4: FcγRIIB protein (human, UniProt P31994 43-217, biotinylated (SureLINK Biotin Kit) in the ELISA of Example 1)
T4 sequence: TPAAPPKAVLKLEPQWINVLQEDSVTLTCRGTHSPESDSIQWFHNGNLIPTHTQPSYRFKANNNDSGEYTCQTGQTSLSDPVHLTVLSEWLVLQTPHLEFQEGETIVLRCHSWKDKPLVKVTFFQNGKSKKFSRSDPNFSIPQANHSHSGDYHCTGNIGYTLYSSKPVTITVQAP

T5: FcγRIIA protein (human, UniProt P12318 36-217, biotinylated (SureLINK Biotin Kit) in the ELISA of Example 1)
T5 sequence: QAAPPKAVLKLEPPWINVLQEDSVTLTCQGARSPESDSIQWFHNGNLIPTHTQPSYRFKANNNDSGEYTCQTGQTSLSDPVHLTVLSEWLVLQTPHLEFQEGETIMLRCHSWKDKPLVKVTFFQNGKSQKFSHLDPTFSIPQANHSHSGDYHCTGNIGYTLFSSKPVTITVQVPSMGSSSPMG

B1: OX40SF2IgG2sigma_R2BS29_LC-N (bispecific antibody)
heavy: QVQLVQSGAEVKKPGSSVKVSCKASGYTFKDYTMHWVRQAPGQGLEWIGGIYPNNGGSTYNQNFKDRVTLTADKSTSTAYMELSSLRSEDTAVYYCARMGYHGPHLDFDVWGQGTTVTVSSASTKGPSVFPLAPCSRSTSESTAALGCLVKDYFPEPVTVSWNSGALTSGVHTFPAVLQSSGLYSLSSVVTVPSSNFGTQTYTCNVDHKPSNTKVDKTVERKCCVECPPCPAPPAAASSVFLFPPKPKDTLMISRTPEVTCVVVDVSAEDPEVQFNWYVDGVEVHNAKTKPREEQFNSTFRVVSVLTVLHQDWLNGKEYKCKVSNKGLPSSIEKTISKTKGQPREPQVYTLPPSREEMTKNQVSLTCLVKGFYPSDIAVEWESNGQPENNYKTTPPMLDSDGSFFLYSKLTVDKSRWQQGNVFSCSVMHEALHNHYTQKSLSLSPGK
light: LPAPKNLVVSRVTEDSARLSWTAPDAAFDSFPIYYWEYRVGGEAIVLTVPGSERSYDLTGLKPGTEYFVYINGVKGGEESRPLSAIFTTGGGGSGGGGSGGGGSGGGGSDIQMTQSPSSLSASVGDRVTITCKASQDVGAAVAWYQQKPGKAPKLLIYWASTRHTGVPSRFSGSGSGTDFTLTISSLQPEDFATYYCQQYINYPLTFGGGTKVEIKRTVAAPSVFIFPPSDEQLKSGTASVVCLLNNFYPREAKVQWKVDNALQSGNSQESVTEQDSKDSTYSLSSTLTLSKADYEKHKVYACEVTHQGLSSPVTKSFNRGEC
notes: mAbtyrin: R2BS29 FN3 domain and linker at the N-terminus of the light chain of OX40SF2IgG2sigma; also called mAbtyrin
B2: OX40SF2IgG1_R2BS29_HC-C (bispecific antibody)
heavy: not shown
light: DIQMTQSPSSLSASVGDRVTITCKASQDVGAAVAWYQQKPGKAPKLLIYWASTRHTGVPSRFSGSGSGTDFTLTISSLQPEDFATYYCQQYINYPLTFGGGTKVEIKRTVAAPSVFIFPPSDEQLKSGTASVVCLLNNFYPREAKVQWKVDNALQSGNSQESVTEQDSKDSTYSLSSTLTLSKADYEKHKVYACEVTHQGLSSPVTKSFNRGEC
notes: mAbtyrin: wild-type IgG1 OX40SF2 with linker and R2BS29 FN3 domain at the C-terminus of the heavy chain; also called mAbtyrin
B3: OX40SF2IgG1_R2BS29_LC-C (bispecific antibody)
heavy: not shown
light: DIQMTQSPSSLSASVGDRVTITCKASQDVGAAVAWYQQKPGKAPKLLIYWASTRHTGVPSRFSGSGSGTDFTLTISSLQPEDFATYYCQQYINYPLTFGGGTKVEIKRTVAAPSVFIFPPSDEQLKSGTASVVCLLNNFYPREAKVQWKVDNALQSGNSQESVTEQDSKDSTYSLSSTLTLSKADYEKHKVYACEVTHQGLSSPVTKSFNRGECGGGGSGGGGSGGGGSGGGGSMLPAPKNLVVSRVTEDSARLSWTAPDAAFDSFPIYYWEYRVGGEAIVLTVPGSERSYDLTGLKPGTEYFVYINGVKGGEESRPLSAIFTT
notes: mAbtyrin: wild-type IgG1 OX40SF2 with linker and R2BS29 FN3 domain at the C-terminus of the light chain; also called mAbtyrin

Molecular target: T1, human FcγRIIB (NM_004001) expressed on …
Assay: cell-based or functional assay

Binder | % activity at 1 µg/ml with Raji cells (HEK-Blue: OX40 NF-κB reporter) [%]
B1 | 11
B2 | 90
B3 | 76

Molecular target: T6, human FcγRIIIA (NM_000569) expressed on cells (human, UniProt P08637 17-254)
T6 sequence (P08637 17-254 limits assumed): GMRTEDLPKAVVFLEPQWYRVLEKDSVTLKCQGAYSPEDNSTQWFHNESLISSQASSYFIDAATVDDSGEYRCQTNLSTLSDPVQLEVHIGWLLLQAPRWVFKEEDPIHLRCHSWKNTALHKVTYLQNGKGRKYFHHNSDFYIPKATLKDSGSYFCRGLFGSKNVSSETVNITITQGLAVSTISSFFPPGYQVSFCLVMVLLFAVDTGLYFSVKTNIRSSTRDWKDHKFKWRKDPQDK
Assay: cell-based or functional assay

Binder | ADCC (fold activation) at 1 µg/ml [fold]
B1 | 1
B2 | 9
B3 | 9

Molecular target: T2, human FcγRIIA (NM_021642) expressed on …
Assay: cell-based or functional assay

Binder | ADCP EC50 [mg/L]
B1 | 0.0089
B2 | 0.0318
B3 | 0.0151

Molecular target: T6, human FcγRIIIA (NM_000569) expressed on …
Assay: flow cytometry; Expi293F cells transfected with FcγRIIIA
Description: (§1) Plasmids expressing cDNAs encoding human FcγRI (NM_000566) (SEQ ID NO: 44), FcγRIIA (NM_021642) (SEQ ID NO: 2), FcγRIIB (NM_004001) (SEQ ID NO: 3), and FcγRIIIA (NM_000569) (SEQ ID NO: 45) (Origene) were transiently transfected into Expi293F cells by ExpiFectamine293 transfection kit (Life Technologies). Flow cytometry assays were performed 48 h after transfection.
(§2) 2×10⁵ cells per well were seeded in 96-well plate and blocked in BSA Stain Buffer (BD Biosciences, San Jose, USA) for 30 min at 4° C. Cells were incubated with test mAbtyrin on ice for 1.5 h at 4° C. After being washed twice with BSA stain buffer, the cells were incubated with R-PE labeled anti-human or anti-mouse IgG secondary antibody (Jackson Immunoresearch Laboratories) for 45 min at 4° C. The cells were washed twice in stain buffer and then resuspended in 150 μL of Stain Buffer containing 1:200 diluted DRAQ7 live/dead stain (Cell Signaling Technology, Danvers, USA). PE and DRAQ7 signals of the stained cells were detected by Miltenyi MACSQuant flow cytometer (Miltenyi Biotec, Auburn, USA) using B2 and B4 channel respectively. Live cells were gated on DRAQ7 exclusion and the geometric mean fluorescence signals were determined for at least 10,000 live events collected. FlowJo software (Tree Star) was used for analysis. Data was plotted as the logarithm of antibody concentration versus mean fluorescence signals. Nonlinear regression analysis was performed by GraphPad Prism 6 (GraphPad Software, Inc.) and EC₅₀ values were calculated.

Binder | EC50 [mg/L]
B1 | > 10
B2 | 0.448
B3 | 0.585

Molecular target: T7, human FcγRI (NM_000566) expressed on cells (human, UniProt P12314 16-374)
T7 construct: Transiently expressed on Expi293F cells
T7 sequence (P12314 16-374 limits assumed): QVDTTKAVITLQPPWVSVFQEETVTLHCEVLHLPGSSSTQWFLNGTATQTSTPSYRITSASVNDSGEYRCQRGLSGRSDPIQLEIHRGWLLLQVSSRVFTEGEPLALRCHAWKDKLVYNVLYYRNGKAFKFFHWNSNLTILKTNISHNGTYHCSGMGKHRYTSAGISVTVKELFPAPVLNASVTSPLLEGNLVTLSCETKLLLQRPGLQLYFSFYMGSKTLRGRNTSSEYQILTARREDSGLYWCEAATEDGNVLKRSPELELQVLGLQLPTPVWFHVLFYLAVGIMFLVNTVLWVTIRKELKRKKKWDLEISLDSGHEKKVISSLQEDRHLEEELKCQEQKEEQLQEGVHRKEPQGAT
Assay: flow cytometry; Expi293F cells transfected with FcγRI
Description: as §1, §2

Binder | EC50 [mg/L]
B1 | > 10
B2 | 0.586
B3 | 0.397

Molecular target: T2, human FcγRIIA (NM_021642) expressed on …
Assay: flow cytometry; Expi293F cells transfected with FcγRIIA
Description: as §1, §2

Binder | EC50 [mg/L]
B1 | 0.046
B2 | 0.063
B3 | 0.066

Molecular target: T1, human FcγRIIB (NM_004001) expressed on …
Assay: flow cytometry; Raji cells (express predominantly FcγRIIB)
Description: as §2
Raji cell is a cell line derived from B cells that express predominantly FcγRIIB. The binding of mAbtyrins on Raji cells were investigated by flow cytometry assay described for testing mAbtyrin binding to FcγR. Binding of the mAbtyrins were detected by flow cytometry using a PE-labeled Goat F(ab′) against Human IgG(γ).

Binder | EC50 [mg/L]
B1 | 3.37
B2 | 1.27
B3 | 3.3

Molecular target: T3, human OX40 expressed on HEK-Blue: OX40 …
Assay: flow cytometry; HEK-Blue: OX40 cells
How it was run: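 HEK-Blue Null 1 cells stably transfected with human OX40 were blocked, then incubated with mAbtyrin for 1.5 h at 4 °C. Binding was detected with a PE anti-human IgG F(ab′)₂ secondary, gating on DRAQ7-excluding live cells and taking geometric mean fluorescence. EC50 came from nonlinear regression versus log antibody concentration.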

Binder | EC50 [mg/L]
B1 | 0.431
B2 | 0.193
B3 | 0.111

Molecular target: T4, FcγRIIB protein
Assay: cell-based or functional assay

Binder | IFNγ production by activated CD4 T cells, plate-coated FcγRIIb [pg/mL] | TNFα production by activated CD4 T cells, plate-coated FcγRIIb [pg/mL]
B1 | 72 | 29
B2 | 1370 | 250
B3 | 177 | 37

Molecular target: T5, FcγRIIA protein
Assay: cell-based or functional assay

Binder | IFNγ production by activated CD4 T cells, plate-coated FcγRIIA [pg/mL] | TNFα production by activated CD4 T cells, plate-coated FcγRIIA [pg/mL]
B1 | 103 | 29
B2 | 1760 | 335
B3 | 125 | 33

Molecular target: T1, human FcγRIIB (NM_004001) expressed on …
Assay: flow cytometry; Expi293F cells transfected with FcγRIIB
Description: as §1, §2

Binder | EC50 [mg/L]
B1 | 1.02
B2 | 0.968
B3 | 1
